Measurements reported in a protein production outcome set (Wang et al. 2014).

Assay: label from the status in PepcDB records

Row | Sequence | protein production
1 | MKLICSKANLLKGVNIVSKAVPTRTTMAILECILIDASANEIKLMANDMELGIETIIDGTIEERGIIALDAKIFSEIVRKLPDNDVTIETDASFKTVISCEKAKFNIIGKSGDDFSYIPYVERNESIVLSQFTLKEVIRQTIFSIADNDNNKLMTGELFEIEENKLRVVSLDGHRISIRYIEMKNHYDSKKVVVPGKTLQEISKIIPGSADEDVVIYITNNHIVFEFENTTVVSRLIEGEYFKIDQMLSSDYDTKVRINKRELLDCIDRATLLVKEGDKKPIIMNITDGNMELRINSFIGSMNEDIDIDKDGKDIMIGFNPKFFIDALRVIDEEEVNLYMVNPKAPCFIKDDEGKFIYLILPVNFNTAAN | not failed
2 | MHGIDLHTHSNISDGTLSPSCLVDAAIACGIHTLALTDHDTMDGLETAIQQAQGHDIQIISGAEISSQWSRPNTKKAYGVHIVALNMQNPEPLLDALVIQKNIRAERAQQICQILQQCTGQDIYTDVLLKVEGEPDRITRTHIAKALVEKEIVARPQQAFDRFLKEGKRAYVKFDGLNLADTIRIIHESEGFAILAHPTRYDLSSTNVRYLIELFAKMGGDAVELPPSVDPVSTRQMIDRIIQQFDLKVSIGSDFHG | failed
3 | MTKQIKVGVIGVGQMGQYHAEIYQKLPQVELVAICEFNDERRAEMAEKFQCKAYKDYHELLANTEIEAVIIVLPDNMHRDCVEEAVKHKKHILLEKPLAKELEDGKAMYELTKDYDKVFTVGFLLRFDPRFNMIKQRLDNGELGDIIHLYCRRNSPITGPKRYIGASDLSMHVMIHDIDYINWYMDSEPVKVIAKSRSVLLKEYGMNDVIYAIVTYENGAIACLEACWVLPENSPTIIDDKLELVGTKGVAYVDSCDHGVRFVSEKGVSYPDSRHWYYTNGEVSGDLAEEVMAFINNVANNTKSIITPKEAYDSLRVVDAIERSIAEGKEVSL | failed
4 | MKALVVSDDINFLKQACTLVNGKAEYDAVYVGEGRVSGVGASTLYTVKKGTPYDAVADGILEIMGNYDIIVAGSTEFGREVAGYIAGKTGYYAATEIFSLEFSNGKAKTKRFFYGGKTVIEEESDAKVFTVAPGVIEAKEFESKPEEKDLPIKPSKVRVNKVVPKNAGGVR | failed
5 | MDLLLKAALGAAVVVILAALAKTRNYYIAGLVPLFPTFALIAHYIVGKGRSLDDLKTTILFGMWSIIPYFVYLATLYVMVDRLRLEASLAVAAVAWLIAATILVSVWVRLHA | failed
6 | MKLEKLIPWLAGGLAVVGAAIAVIPPSPVRGFDTDAFGRLPVLEGGRVKPVDSVSRNALLMIRGQQSFRYDPDGDGPQKGRTISSDEWILDVLFRPELADQYPVFVINDPEVLGLMGMRQSSNRYFAFSALVPHLEEIQKQAMAAHQVDAKQRTRFQSAIANLFERVYLYYRLKNTVQLAGSPGLAAEVASAGTPGAQQRHQAIEELAYFRPIPPAAGTTGDDWLNMGQALRGAASGQVGDALSGWARLSVAYMAQDPSSFGRAVADVTAADAAARPDSIDLAGHEIVFNRAQPFYAGMVVYVLAMLALFASWLWKPKILQPAAYGLLVAGALIHTLGLVSRVLLQGRPPVTNLYSSAVFVGWGAVVLGVILERIYRKGFATAVAAASGFASLIVAHHLSGDGDTMEMMRAVLDSNFWLATHVVTITIGYSGTFLAGAMAIGYTLRKHLVRKPDPGTTKALMGMTYGVICFALFFSFLGTVLGGIWADQSWGRFWGWDPKENGALLIVLWNAIILHARWGGFVRERGIMAMAIFGNVITSLSWFGVNMLGVGLHSYGFMDSAFWALTGFIASQLAIMAFTLLPAQFWRTAHAAGKQQEPSPEPGH | failed
7 | MEQEILALFEKILSRKVGFNDELIESDILDSILAVDLVLEVQDVYGCVIPPTEVATVLKTPADLARYIEENRG | failed
8 | GAPFRSTVTLQPTSGSLVNLTEWPPFVITLDDVELVHFERVQFHLRNFDMIFVFKEYNKKVAMVNAIPMNMLDHVKEWLNSCDIRYSEGVQSLNWQKIMKTITDDP | failed
9 | MTAYTSWQTPHLFIFIQQDYILDSIPLSSLFITLIILLLLSAFFSSAETGLMSLNRYKIRHLTAQGHKGAKLAEKLLNKTDVLLSLILICNNLINIAASAIATMIGIRLAGDTGIAIATGILTLVMLVFSEILPKTIAVIYPEKISFLASYILTPLKKLLMPLVFLMNLIIKYLMKLMRIRQHEKSGLSIEELRSVVLEAGKFIPTAHQEMLISILDMEKVTVEDIMVPRNDIGGIDIEDDWKAIIRQLNHAAHGRVVLYKGNMDKNILGILRIREAFRLLLDKEEPSKKTLIRAVDEAYFIPEGTPLITQLMHFKTNKERLGLVVDEYGDIKGLVTLADILEEIVGEFTTSTAPTLAEEVKQQSDGSVIIEGSANLRDLNKLFNWHLPINEVRTFNGLILEHLEKIPIEGTQFRLNQLNITVLEVADNMVKKVKVELIE | failed
